Assay results reported in PMC3830641 (Biochemistry, 2013).
Positions count from the first letter of the chain named. In names and notes the source's numbering stands.

B1: EL368, LOV-histidine kinase from Erythrobacter litoralis HTCC2594 (enzyme, UniProt Q2NCA3 1-360, looked up)
chain: MPLKGEISAQAGREFDTSRLDLRAIIDPRDLRVDPTRLFLETTQQTRLAICISDPHQPDCPVVYVNQAFLDLTGYAREEIVGRNCRFLQGADTDPEQVRKLREGIAAERYTVVDLLNYRKDGIPFWNAVHVGPIYGEDGTLQYFYGSQWDITDIVAERRKAETQRRIAAELRHRTGNIFAVLNAIIGLTSRRERDVSEFADKLSERVSALASAHRMTIMDEPDQEAVAIDDLVTGVMKPYRNRFAERVTTSGPKIELGPRSVTALGLALHELATNAVKYGALSVDAGRVEISWSREDGDVTLVWQEQGGPTVSQEQSEPVKGNGTMLIDGMIASLTGSIERDFAAAGLQAKITLPVHQPE
B2: EL362, LOV-histidine kinase from Erythrobacter litoralis HTCC2594 (wild type, Arg 150) (enzyme, UniProt Q2N9L9 1-362, looked up)
chain: MDDQPTTRANRVGHPESSRQAYSSESGATHGSLAFPGASGLLFEQAMAQTRMAVCLTDPHQPDHPIVFCNAAFERLTGYEEKDIIGRNCRFLQGARTDESQVARIRDALAKEEVAVVELLNYRKDGSTFWNALHLGPIYDESGKLKYFFRSQWDVTDIHEARAEQRHAKAMAREVSHRLKNVFSVIAGIVNITGRSMDARPVASRINERVQALGRAYEPTLDEAFMGTIEVGQAIRAILAPYDPEGDRVSLEGNGVRTEPNAISSIGLTLHELASNAIKYGALSNETGTIDVSWHHERDDHDRRRLVIDWKESGGPTIEGPPETGGTGFDISETLLSYSNGTLEKRWDRDGLFVRIAIPIEQ
B3: EL362(R150G) (enzyme, Erythrobacter litoralis HTCC2594, UniProt Q2N9L9 1-362, looked up)
chain: B2 chain with R150G

Legend:
[1] = target: anti-σ factor (ELI_10225) from Erythrobacter litoralis HTCC2594 (Erythrobacter litoralis HTCC2594) (UniProt Q2N854); test: SEC-MALS
[2] = target: the molecule itself; test: SEC-MALS

Molecule	binding result [2]	also measured
phospho-EL_PhyR (EL_PhyR phosphorylated by EL368 and ATP) (from UniProt Q2N856 1-266) (natural protein)		stoichiometry N [1]: 1
B1		stoichiometry N [2]: 2
B2	binds	
B3	binds	
